{"source": "paper PMC12014896", "about": "(2025)", "binders": {"B1": {"name": "COVIC-162 (antibody, V domains shown)", "VH": "QLQLQESGPGLVKPSETLSLTCTVSGGSISNSNYYWGWIRQPPGKGLEWIGSIYYSGRTYYNPSLKSRVTISVDTSKNQFSLKLSSVTAADTAVYYCARMGLLWFGEFYGMDVWGQGTTVTVSS", "VL": "DIQMTQSPSSLSASVGDRVTITCRASQGISSWLAWYQQKPEKAPKSLIYDASSLQRGVPSRFSGSGSGTDFTLTISSLQPEDFASYYCQQYNSYPLTFGGGTRVEIKR"}, "B2": {"name": "COVIC-149 (antibody, V domains shown)", "VH": "not shown", "VL": "DIQLTQSPSFLSASVGDRVTITCWASQGINSYLAWYQQKPGKAPKLLIYAASTLQSGVPSRFSGSGSGTEFTLTISSLQPEDFTTYYCQQFNDYPRTFGPGTKVEIKR"}, "B3": {"name": "COVIC-160 (antibody, V domains shown)", "VH": "EVQLVESGGGLIQPGGSLRLSCAASGVTVSSNYMSWVRQAPGKGLEWVSVIYSGGSTFYADSVKGRFTISRDNSKNTLYLQMNSLRAEDTAVYYCARDLSYYGMDVWGQGTTVTVSS", "VL": "B2 VL with N30S, R61K, T84A, F91L, D93S, R96C, T97S, P100Q, V104L"}, "B4": {"name": "COVIC-131 (antibody, V domains shown)", "VH": "EVQLVESGGGVVQPGRSLRLSCAASAFTFSSYDMHWVRQAPGKGLEWVAVISYDGSNKYYADSVKGRFTISRDNSKNTLYLQMNSLRAEDTAVYYCAKDGGKLWVYYFDYWGQGTTVTVSS", "VL": "not shown"}, "B5": {"name": "COVIC-142 (antibody, V domains shown)", "VH": "EVQLVESGGGLIQPGGSLRLSCAASGFTVSSNYMSWVRQAPGKGLEWVSVIYSGGSTYYADSVKGRFTISRDNSKNTLYLQMNSLRAEDTAVYYCARHITMVRGVIIYLKEWGQGTLVTVSS", "VL": "DIVMTQSPSSLSASVGDRVTITCQASQDISNYLNWYQQKPGKAPKLLIYDASNLETGVPSRFSGSGSGTDFTFTISSLQPEDIATYYCQQCDNLPITFGQGTRLEIK"}, "B6": {"name": "COVIC-312 (antibody)", "chain 1": "QVQLVQSGAEVKKPGSSVKVSCKASGGTFGISWVRQAPGQGLEWMGRIIPILGTANHAQKFQGRVTITADKSTGTVYMELSSLRSEDTAVYYCARDGDSGSYYETLGFDYWGQGTLVTVSSGGGGSGGGGSGGGGEVQLVESGGGLVKPGGSLRLSCAASGFTFSPYSMNWVRQAPGKGLEWVSSISVSNIYTYYADSVKGRFTISRDNAKNSLYLQMNSLRAEDTAIYYCARDLKKGGIQYDAFDIWGQGTVVTVSS", "chain 2": "QSALTQPPSASGSPGQSVTISCTGTSSDVGGYNYVSWYQQHPGKAPKLMIYEVNKRPSGVPDRFSGSKSGNTASLTVSGLQAEDEADYYCSSYAGSNNLVFGGGTKLTVLGGGGSGGGGSGGGGEIVLTQSPATLSLSPGERATLSCRASQSVNDYLAWYQQKPGQAPRLLIYDASNRATGFPARFSGSGSGTDFTLTISSLEPEDFAVYYCQQRSNWPPTFGQGTRLEIK"}, "B7": {"name": "COVIC-153 (antibody, V domains shown)", "VH": "EVQLVESGGGLIQPGGSLRLSCAASGLTVSSNYMSWVRQAPGKGLEWVSIIYSGGSTYYADSVKGRFTISRDNSKNTLYLQMNSLRAEDTAVYYCARLGGYYYYGMDVWGQGTTVTVSS", "VL": "DIQMTQSPSSLSASVGERVTITCQASQDIRNYLNWYQKKPGKAPKLLIYDSSNLETGVPSRFSGSGSGTDFTFTISSLQPEDIATYYCQQYDNLPITFGQGTRLEIKR"}, "B8": {"name": "COVIC-167 (antibody, V domains shown)", "VH": "B7 VH", "VL": "B7 VL with S65G"}, "B9": {"name": "COVIC-121 (antibody)", "chain": "QVQLQESGGGLVQAGGSLRLSCAASGRTFSEYAMGWFRQAPGKEREFVATISWSGGSTYYTDSVKGRFTISRDNAKNTVYLQMNSLKPDDTAVYYCAAAGLGTVVSEWDYDYDYWGQGTQVTVSSGGSGGSQVQLQESGGGLVQAGGSLRLSCAASGRTFSEYAMGWFRQAPGKEREFVATISWSGGSTYYTDSVKGRFTISRDNAKNTVYLQMNSLKPDDTAVYYCAAAGLGTVVSEWDYDYDYWGQGTQVTVSSGGGGSGGGGSKKKPLDGEYFTLQIRGRERFEMFRELNEALELKDAQAGKEPGGGGGSGGGGSQVQLQESGGGLVQAGGSLRLSCAASGRTFSEYAMGWFRQAPGKEREFVATISWSGGSTYYTDSVKGRFTISRDNAKNTVYLQMNSLKPDDTAVYYCAAAGLGTVVSEWDYDYDYWGQGTQVTVSS"}, "B10": {"name": "COVIC-265 (antibody, V domains shown)", "VH": "QVQLVESGGGLVQPGGSLRLSCTVSGIDLSSYAMGWVRQAPGKGLEYIGIISGSGSTDYANWAKGRFTISRDNSKNTLYLQMNSLRAEDTAVYYCARAGYGVYGYAKYYGMDPWGQGTLVTVSS", "VL": "DIQMTQSPSSLSASVGDRVTITCKASEDIHYGLNWYQQKPGKAPKLLIYGATTLESGVPSRFSGSGSGTDFTLTISSLQPEDFATYYCQQGYSTPLTFGGGTKVEIK"}, "B11": {"name": "COVIC-333 (antibody, V domains shown)", "VH": "QVQLVQSGAEVKKPGSSVRVSCKASGGTFISYTFNWVRQAPGQGLEWMGRIIPIFGIVNYAQKFQGRVTIAADKSTSTAYMELSSLRSEDTAMYYCATATVDYDSGEEQSSFDPWGQGTLVTVSS", "VL": "EIVLTQSPGTLSLSPGERATLSCRASQSVSSSYLAWYQQKAGQTPRLLIYAASSRATGVPDRFSGSGSGTDFTLTISRLEAEDFAVYYCQQSWTFGQGTKVEIK"}, "B12": {"name": "COVIC-22 (antibody, V domains shown)", "VH": "EVQLLESGGGLVQPGGSLRLSCAASGFTFSRHAMNWVRQAPGKGLEWVSGISGSGDETYYADSVKGRFTISRDNSKNTLYLQMNSLRAEDTAVYYCARDLPASYYDSSGYYWHNGMDVWGQGTLVTVSS"}, "B13": {"name": "COVIC-305 (antibody, V domains shown)", "VH": "QVQLVQSGAEVKKPGSSVRVSCKVSGYTFTGYYMHWVRQAPGQGLEWMGIINPSGGSTSYAQKFQGRVTMTRDTSTSTVYMELSSLRSEDTAVYYCARVRVGASDAFDIWGQGTMVTVSS", "VL": "SYVLTQPPSVSVAPGQTARITCGGNNIGSKSVHWYQQKPGQAPVLVVYDDSDRPSGIPERFSGSNSGNTATLIISRVEAGDEADYYCQVWDSSSVHYVFGTGTKLTVLG"}}, "note": "Residue numbers refer to the chain shown, from its start."}
{"target": "SARS-CoV-2 spike RBD (Wuhan-Hu-1) (Severe acute respiratory syndrome …, UniProt P0DTC2)", "test": "SPR", "units": {"Kd": "nM"}}
{"binder": "B1", "Kd": 191}
{"binder": "B2", "Kd": 22.3}
{"binder": "B3", "Kd": 14.7}
{"binder": "B4", "Kd": 2.05}
{"binder": "B5", "Kd": 16.5}
{"binder": "B6", "Kd": 0.347}
{"binder": "B7", "Kd": 2.06}
{"binder": "B8", "Kd": 1.87}
{"binder": "B9", "Kd": 195}
{"binder": "B10", "Kd": 1.55}
{"binder": "B11", "Kd": 0.0111}
{"binder": "B12", "Kd": 0.414}
{"binder": "B13", "Kd": 7.27}
